12 molecules from patent US20220332816A1 (SINGLE CELL TECHNOLOGY, published 2022) can be followed below.

In test [1] the target is TIGIT on the engineered cell lines of the TIGIT/CD155 Blockade Bioassay (J2201, Promega) (UniProt Q495A1). As to the kind of experiment: cell-based or functional assay.
Test [2] has as its target T1, TIGIT on the engineered cell lines of the TIGIT/CD155 Blockade Bioassay (J2201, Promega) (UniProt Q495A1 22-244, limits assumed).
T1 sequence (looked up): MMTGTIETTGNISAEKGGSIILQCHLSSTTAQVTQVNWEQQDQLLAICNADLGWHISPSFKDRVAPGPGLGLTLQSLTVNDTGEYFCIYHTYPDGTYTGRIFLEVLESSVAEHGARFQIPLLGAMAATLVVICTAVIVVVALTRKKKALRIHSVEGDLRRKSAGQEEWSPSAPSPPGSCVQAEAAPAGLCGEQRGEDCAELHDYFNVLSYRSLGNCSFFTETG
The test is described as follows: cell-based or functional assay.

For a further test, the target named is T2, Recombinant human TIGIT (human, UniProt Q495A1 22-141, limits assumed).
T2 construct: also called T cell immunoreceptor with Ig and ITIM domains
T2 sequence: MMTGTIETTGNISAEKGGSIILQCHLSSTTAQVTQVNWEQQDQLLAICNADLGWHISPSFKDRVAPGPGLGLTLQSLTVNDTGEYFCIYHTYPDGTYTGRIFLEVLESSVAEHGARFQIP
The test is described as follows: ELISA, recombinant human TIGIT coated on plate, serially diluted antibody. Here is the method: The recombinantly expressed antibodies were used to assess binding activity to TIGIT by conventional ELISA according to the known art. Recombinant human TIGIT was coated onto ELISA plates to detect binding at serially diluted concentrations of the anti-TIGIT antibody preparations (FIG. 1). Anti-TIGIT antibodies' blockade activity was assessed using engineered cell lines, kit reagents (TIGIT/CD155 Blockade Bioassay, J2201, Promega, Madison, Wis.), and a luminometer (Promega, Madison, Wis.) and the results were used to compare against benchmark antibodies with known blockade activity (FIG. 2). Similarly, these antibodies were assessed for their ability to synergize with an anti-PD-1 antibody using a PD-1+TIGIT combination bioassay (Cat. No. J2211 Promega, Madison, Wis.).
In general terms: In an ELISA, binding on a coated surface is turned into a signal by an enzyme label.

In test [1], MK-7684 (antibody) gave a Blockade EC50 of 24.8 nM.

B1: SCT-Ga333 (antibody, V domains shown)
VH: QVQLQQSGAELVRPGTSVKVSCKASGYAFTNYLIEWVKQRPGQGLEWIGVINPGSGGNNYNEKFKGKATLTADKSSSTAYMQLSSLTSDDSAVYFCARRGDKYGSAWFAYWGQGTLVTVSA
VL: DIVMTQSHKFMSTSVGDRVSITCKASQDVSTAVAWYQQKPGQSPKLLIYSASYRYTGVPDRFTGSGSGTDFTFTISSVQAEDLAVYYCQQHYSSPRTFGGGTKLEIK
notes: Murine variable domains
B1: the “Blockade EC50” value in test [2] stood at 42.2 nM. In the test with Recombinant human TIGIT, the EC50 turned out to be 1.08 nM.

B2: SCT-Ga498 (antibody, V domains shown)
VH: QVQLQQSGAEVKKPGASVKVSCKASGYAFTNYLIEWVKQAPGQGLEWIGVINPGSGGNNYNEKFKGRATITADKSTSTAYMELSSLRSEDTAVYFCARRGDKYGSAWFAYWGQGTTVTVSA
VL: DIVMTQSQRFMSTTVGDRVSITCKASQDVSTAVAWYQQKPGQSPKLLIYSASYRYTGVPDRFTGSGSGTDFTLTISNMQSEDLAVYYCQQHYSSPRTFGGGTKLEIK
B2: in the test with Recombinant human TIGIT, the EC50 was determined as 0.82 nM.

B3: SCT-Ga461 (antibody, V domains shown)
VH: EVQLVESGGGLVQPGGSLRLSCAASGFTFSSYTMSWVRQAPGKGLEWVATISSGGSYTYYPDSVKGRFTISRDNAKNTLYLQMNSLRAEDTAVYYCTRWLLSLYAMDYWGQGTLVTVSS
VL: AIQMTQSPSSLSASVGDRVTITCQASQNINVWLSWYQQKPGKAPKLLIYKASTLASGVPSRFSGSGSGTDFTLTISSLQPDDFATYYCQQGQTYPFTFGGGTKVEIK
In the case of B3, the EC50 with Recombinant human TIGIT came to 4.55 nM.

B4: SCT-Ga485 (antibody, V domains shown)
VH: QVQLVQSGAEVKKPGASVKVSCKASGYAFTNYLIEWVKQAPGQGLEWIGVINPGSGGSKYNEKFKGRATITADKSTSTAYMELSSLRSEDTAVYFCARTGVYGNFLIFDYWGQGTTVTVSS
VL: DIVMTQSPDSLAVSLGERATINCKSSQSLLNSGIQKNYLAWYQQKPGQPPKLLIYGASTRESGVPDRFSGSGSGTDFTLTISSLQAEDVAVYYCQNDHRYPFTFGGGTKLEIK
B4: in the test with Recombinant human TIGIT, the EC50 was 0.79 nM.

B5: SCT-Ga249 (antibody, V domains shown)
VH: QVQLQQSGGELMKPGASVKISCKATGYTFSNYWIEWVKQRPGHGLEWIGEILPGSGSSYYNEKFKGRATFTADKSSNTAYMQLSSLTSEDSAVYYCARQKYGNFYYFDFWGQGTTLTVSS
VL: AIQMTQTTSSLSASLGDRVTISCSASQGIGNYLNWYQQKPDGTVKLLIYYTSSLHSGVPSRFSGSGSGTDYSLTISDLEPEDIATYYCHQYSKLPYTFGGGTKLEIK
notes: Murine variable domains
In the case of B5, in test [2], the “Blockade EC50” value was 28.1 nM. Besides, the EC50 with Recombinant human TIGIT was 1.22 nM.

B6: SCT-Ga487 (antibody, V domains shown)
VH: QVQLQQPGAELVKPGASVKMSCKATGYTFSNYWIEWVKQTPGRGLEWIGEILPGSGSSYYNQKFKGKATLTADKSSSTAYMQLSSLTSEDSAVYYCARQKYGNFYYFDFWGAGTTVTVSA
VL: AIQMTQSPSSLSASVGDRVTITCRASQGIGNYLNWYQQKPGKAPKLLIYYTSSLHSGVPSRFSGSGSGTDYTFTISSLQPEDIATYYCHQYSKLPYTFGQGTKVEIK
B6: in the test with Recombinant human TIGIT, the EC50 came out at 1.96 nM.

B7: SCT-Ga255 (antibody, V domains shown)
VH: EVKLVESGGGLVKPGGSLKLSCAASGFAFSSFDMSWVRQTPEKRLEWVAVISSGGSYTFYPDSVKGRFTISRDNARNTLYLQMSSLRSEDTALYFCTRQDYRYPYIMDYWGQGTSVTVSS
VL: DIQMNQSPSSLSASLGDTITITCHASQNINVWLSWYQQKPGNIPKLLIYKASNLHTGVPSRFSGSGSGAGFTLTISSLQPEDIATYYCQQGQSYPWTFGGGTKLEIK
notes: Murine variable domains
As for B7, in test [2], the “Blockade EC50” value amounted to 33.4 nM. Also, the EC50 with Recombinant human TIGIT is 0.96 nM.

B8: SCT-Ga495 (antibody, V domains shown)
VH: EVKLVESGGGLVQPGGSLRLSCAASGFAFSSFDMSWVRQAPGKGLEWVAVISSGGSYTFYPDSVKGRFTISRDNSKNTLYLQMNSLRAEDTALYFCTRQDYRYPYIMDYWGQGTLVTVSS
VL: AIQMTQSPSSLSASVGDRVTITCQASQNINVWLSWYQQKPGKAPKLLIYKASTLASGVPSRFSGSGSGTDFTLTISSLQPDDFATYYCQQGQSYPWTFGGGTKVEIK
B8: in the test with Recombinant human TIGIT, the EC50 amounted to 0.69 nM.

B9: SCT-Ga433 (antibody, V domains shown)
VH: DVKLVESGGGLVKPGGSLKLSCSASGFTFSSYTMSWVRQTPEKRLEWVATISSGGSYTYYPDSVKGRFTISRDNAKNTLYLQMSSLKSEDTAMFYCTRWLLSLYAMDYWGQGTSVTVSS
VL: DIQMNQSPSSLSASLGDTITITCHASQNINVWLSWYQQKPGNISKLLIYKASNFHTGVPSRFSGSGSGTNFTLTISSLQPEDIATYYCQQGQTYPFTFGGGTKLEIK
notes: Murine variable domains
On to B9, for which the “Blockade EC50” value in test [2] was determined as 25.2 nM. Besides, the EC50 with Recombinant human TIGIT was determined as 1.1 nM.

B10: SCT-Ga496 (antibody, V domains shown)
VH: EVKLVESGGGLVQPGGSLRLSCAASGFAFSSFDMSWVRQAPGKGLEWVAVISSGGSYTFYPDSVKGRFTISRDNSKNTLYLQMNSLRAEDTALYFCTRQDYRYPYIMDYWGQGTLVTVSS
VL: DIQMTQSPSSLSASVGDRVTITCHASQNINVWLSWYQQKPGKAPKLLIYKASTLASGVPSRFSGSGSGTDFTLTISSLQPDDFATYYCQQGQSYPWTFGGGTKVEIK
In the case of B10, in the test with Recombinant human TIGIT, the concentration for a half-maximal effect (EC50) turned out to be 0.67 nM.

B11: SCT-Ga001 (antibody, V domains shown)
VH: QVQLQQSGAELVRPGTSVKVSCKASGYAFTNYLIEWVKQRPGQGLEWIGVINPGSGGSKYNEKFKGKTTLTADKSSSTAYMQLSSLTSEDSAVYFCARTGVYGNFLIFDYWGQGTTLTVSS
VL: DIVLTQSPSSLSVAAGEKVTLSCKSSQSLLNSGIQKNYLAWYQQKPGQPPKLLIYGASTRESGVPDRFTGSGSGTDFTLTISSVQAEDLAVYYCQNDHRYPFTFGGGTKLEIK
notes: Murine variable domains
With B11, in test [2], the “Blockade EC50” value turned out to be 26.6 nM. The EC50 with Recombinant human TIGIT worked out at 5.03 nM.

As usually defined, the EC50 is the concentration needed to bring the measured effect to its halfway point.
